Source: US20140323349A1, “COMPOSITIONS AND METHODS FOR MONITORING AND DETECTING CANCEROUS CONDITIONS” (PHIGENIX, INC., priority 2011, published 2014)

Tests used:
Assay type in all cases: cell-based, human
LNCaP cells [1] = assay: MTT cell viability assay; details: DEFB1 induction 24-72 h
Procedure: Reactions were performed three times in triplicate.
DU145, PC3 and LNCaP cells (1×10^5) were transfected with 0.5 μg of the PAX2 siRNA pool or control siRNA pool using Codebreaker transfection reagent according to the manufacturer's protocol (Promega). Next, cell suspensions were diluted and seeded onto a 96-well plate at 1-5×10^3 cells per well and allowed to grow for 2-, 4- or 6 days. After culture, cell viability was determined by measuring the conversion of 3-[4,5-dimethylthiazol-2yl]-2,5 diphenyl tetrazolium bromide, MTT (Promega), to a colored formazan product. Absorbance was read at 540 nm on a scanning multiwell spectrophotometer.
(§1) To examine the effects of hBD-1 on cell growth, metabolic 3-[4,5-dimethylthiazol-2yl]-2,5-diphenyl tetrazolium bromide (MTT) assay was performed. DU145, LNCaP, PC3 and PC3/AR+ cells co-transfected with pvgRXR plasmid and pIND/hBD-1 construct or control pvgRXR plasmid were seeded onto a 96-well plate at 1-5×10^3 cells per well. Twenty-four hours after seeding, fresh growth medium was added containing 10 μM Pon A daily to induce hBD-1 expression for 24, 48 and 72 h after which the MTT assay was performed according to the manufacturer's instructions (Promega). Reactions were performed three times in triplicate.

DU145 cells [2] = assay: Annexin V-FITC/PI flow cytometry
Procedure: (§2) The remaining attached cells were harvested by trypsinization and combined with the detached cells and PBS. The cells were then pelleted at 4° C. (500×g) for 5 min, washed twice in PBS, and resuspended in 100 ul of 1× Annexin binding buffer (0.1 M Hepes/NaOH at pH 7.4, 1.4 M NaCl, 25 mM CaCl2) containing 5 μl of Annexin V-FITC and 5 μl of PI. The cells were incubated at room temperature (RT) for 15 min. in the dark, then diluted with 400 μl of 1× Annexin binding buffer and analyzed by FACscan (Becton Dickinson, San Jose, Calif.). All reactions were performed three times.
(§3) PC3 and DU145 cells transfected with the hBD-1 expression system were grown in 60-mm dishes and induced for 12, 24, and 48 h with 10 μM Pon A. The cells were harvested and analyzed by flow cytometry as described in Example 1.

PC3 cells [3] = assay: Annexin V-FITC/PI flow cytometry
Procedure: as §2, §3

active caspases = assay: Pan-caspase detection (FAM-VAD-FMK, confocal)
Procedure: Detection of caspase activity in the prostate cancer cell lines was performed using APO LOGIX™ Carboxyfluorescin Caspase detection kit (Cell Technology, Mountain View, Calif.). Active caspases were detected through the use of a FAM-VAD-FMK inhibitor that irreversibly binds to active caspases. […] Next, 10 μl of a 30× working dilution of carboxyfluorescein labeled peptide fluoromethyl ketone (FAM-VAD-FMK) was added to 300 μl of media and added to each 35 mm dish. Cells were then incubated for 1 hour at 37° C. under 5% CO2. Then, the medium was aspirated and the cells were washed twice with 2 ml of a 1× Working dilution Wash Buffer. Cells were viewed under differential interference contrast (DIC) or under laser excitation at 488 nm. The fluorescent signal was analyzed using a confocal microscope (Zeiss LSM 5 Pascal) and a 63×DIC oil lens with a Vario 2 RGB Laser Scanning Module.

LNCaP cells [4] = assay: AO/EtBr membrane integrity staining; details: 48 h hBD-1 induction
Procedure: (§4) Acridine orange (AO)/ethidium bromide (EtBr) dual staining was performed to identify changes in cell membrane integrity, as well as apoptotic cells by staining the condensed chromatin. AO stains viable cells as well as early apoptotic cells, whereas EtBr stains late stage apoptotic cells that have lost […]. Briefly, cells were seeded into 2 chamber culture slides (BD Falcon, USA). […] In order to determine the effect of PAX2 inhibition on membrane integrity, separate culture slides containing DU145, PC3 and LNCaP were treated with PAX2 siRNA and incubated for 4 days. Following this, cells were washed once with PBS and stained with 2 ml of a mixture (1:1) of AO (Sigma, USA) and EtBr (Promega, USA) (5 ug/ml) solution for 5 min. Following staining, the cells were again washed with PBS. Fluorescence was viewed by a Zeiss LSM 5 Pascal Vario 2 Laser Scanning Confocal Microscope (Carl Zeiss Jena, Germany). The excitation color wheel contain BS505-530 (green) and LP560 (red) filter blocks which allowed for the separation of emitted green light from AO into the green channel and red light from EtBr into the red channel. […] The excitation was provided by a Kr/Ar mixed gas laser at wavelengths of […]. Slides were analyzed under 40× magnification and digital images were stored as uncompressed TIFF files and exported into Photoshop CS software (Adobe Systems, San Jose, Calif.) for image processing and hard copy presentation.
(§5) Acridine orange (AO)/ethidium bromide (EtBr) dual staining was performed to identify changes in cell membrane integrity, as well as apoptotic cells by staining the condensed chromatin. AO stains viable cells and early apoptotic cells, whereas EtBr stains late stage apoptotic cells that have compromised membranes. Briefly, PC3, DU145 and LNCaP cells were seeded into 2-chamber culture slides (BD Falcon). Cells transfected with empty plasmid or hBD-1 plasmid were induced for 24 or 48 h with media containing 10 μM Pon A, while control cells received fresh growth media at each time point. After induction, cells were washed once with PBS and stained with 2 ml of a mixture (1:1) of AO (Sigma, St. Louis, Mo.) and EtBr (Promega) (5 μg/ml) solution for 5 min and were again washed with PBS.
(§6) Fluorescence was viewed by a Zeiss LSM 5 Pascal Vario 2 Laser Scanning Confocal Microscope (Carl Zeiss). The excitation color wheel contains BS505-530 (green) and LP560 (red) filter blocks which allowed for the separation of emitted green light from AO into the green channel and red light from EtBr into the red channel. The laser power output and gain control settings within each individual experiment were identical between control and hBD-1 induced cells. The excitation was provided by a Kr/Ar mixed gas laser at wavelengths of […]. Slides were analyzed under 40× magnification and digital images were stored as uncompressed TIFF files and exported into Photoshop CS software (Adobe Systems) for image processing and hard copy presentation.

DU145 cells [5] = assay: AO/EtBr membrane integrity staining
Procedure: as §4, §5, §6

PC3 cells [6] = assay: AO/EtBr membrane integrity staining
Procedure: as §4, §5, §6

LNCaP cells [7] = assay: Phase contrast microscopy of cell growth; details: 48 h DEFB1 induction
Procedure: (§7) Cell morphology was analyzed by phase contrast microscopy. […] The following day plasmid-containing cells were induced for a period of 48 h with media containing 10 μM Ponasterone A, while control cells received fresh media. The cells were then viewed under an inverted Zeiss IM 35 microscope (Carl Zeiss, Germany). Phase contrast pictures of a field of cells were obtained using the SPOT Insight Mosaic 4.2 camera (Diagnostic Instruments, USA). Cells were examined by phase contrast microscopy under 32× magnification and digital images were stored as uncompressed TIFF files and exported into Photoshop CS software (Adobe Systems, San Jose, Calif.) for image processing and hard copy presentation.
(§8) The effect of PAX2 knock-down on cell growth was analyzed by phase contrast microscopy as described in Example 1.

DU145 cells [8] = assay: Phase contrast microscopy of cell growth; details: DU145, 48 h DEFB1 induction
Procedure: as §7, §8

PC3 cells [9] = assay: Phase contrast microscopy of cell growth; details: PC3, 48 h DEFB1 induction
Procedure: as §7, §8

PC3/AR+ cells = assay: MTT cell viability assay; details: PC3/AR+ versus PC3
Procedure: as §1

B1: DEFB1: human β-defensin-1 (SEQ ID NO:63), expressed in cells from pIND/DEFB1 on Ponasterone A induction (protein, listed as Homo sapiens)
chain: MRTSYLLLFTLCLLLSEMASGGNFLTGLGHRSDHYNCVSSGGQCLYSACPIFTKIQGTCYRGKAKCCK
- effect on cell viability (LNCaP cells [1]): no significant effect
- number of apoptotic cells (DU145 cells [2]; DU145, 12 h DEFB1 induction): 12%
- number of apoptotic cells (DU145 cells [2]; DU145, 24 h DEFB1 induction): 34%
- number of apoptotic cells (DU145 cells [2]; DU145, 48 h DEFB1 induction): 59%
- number of apoptotic cells (PC3 cells [3]; PC3, 12 h DEFB1 induction): 10%
- number of apoptotic cells (PC3 cells [3]; PC3, 24 h DEFB1 induction): 20%
- caspase activity (green staining) (active caspases; DU145, 24 h DEFB1 induction): green staining
- caspase activity (green staining) (active caspases; LNCaP, 24 h DEFB1 induction): no green staining
- caspase activity (green staining) (active caspases; PC3, 24 h DEFB1 induction): green staining
- membrane integrity (AO/EtBr) (LNCaP cells [4]): no observable alterations to membrane integrity
- membrane integrity (AO/EtBr) (DU145 cells [5]; DU145, 24 h DEFB1 induction): accumulation of EtBr in the cytoplasm
- membrane integrity (AO/EtBr) (DU145 cells [5]; DU145, 48 h DEFB1 induction): condensed nuclei and appeared yellow
- membrane integrity (AO/EtBr) (PC3 cells [6]; PC3, 24 h DEFB1 induction): accumulation of EtBr in the cytoplasm
- membrane integrity (AO/EtBr) (PC3 cells [6]; PC3, 48 h DEFB1 induction): condensed nuclei and appeared yellow
- cell proliferation (LNCaP cells [7]): no effect on cell proliferation
- cell number (DU145 cells [8]): significant reduction in cell number
- cell number (PC3 cells [9]): significant reduction in cell number
- hBD-1 cytotoxicity with ectopic AR expression (PC3/AR+ cells): no difference between PC3/AR+ and PC3 cells
